# Measured values reported in patent US20230117831.
# B1: AMPK α1β1γ1-His tag (SignalChem P47-10H) (protein)
# chain 1: MRRLSSWRKMATAEKQKHDGRVKIGHYILGDTLGVGTFGKVKVGKHELTGHKVAVKILNRQKIRSLDVVGKIRREIQNLKLFRHPHIIKLYQVISTPSDIFMVMEYVSGGELFDYICKNGRLDEKESRRLFQQILSGVDYCHRHMVVHRDLKPENVLLDAHMNAKIADFGLSNMMSDGEFLRTSCGSPNYAAPEVISGRLYAGPEVDIWSSGVILYALLCGTLPFDDDHVPTLFKKICDGIFYTPQYLNPSVISLLKHMLQVDPMKRATIKDIREHEWFKQDLPKYLFPEDPSYSSTMIDDEALKEVCEKFECSEEEVLSCLYNRNHQDPLAVAYHLIIDNRRIMNEAKDFYLATSPPDSFLDDHHLTRPHPERVPFLVAETPRARHTLDELNPQKSKHQGVRKAKWHLGIRSQSRPNDIMAEVCRAIKQLDYEWKVVNPYYLRVRRKNPVTSTYSKMSLQLYQVDSRTYLLDFRSIDDEITEAKSGTATPQRSGSVSNYRSCQRSDSDAEAQGKSSEVSLTSSVTSLDSSPVDLTPRPGSHTIEFFEMCANLIKILAQ
# chain 2: MGNTSSERAALERHGGHKTPRRDSSGGTKDGDRPKILMDSPEDADLFHSEEIKAPEKEEFLAWQHDLEVNDKAPAQARPTVFRWTGGGKEVYLSGSFNNWSKLPLTRSHNNFVAILDLPEGEHQYKFFVDGQWTHDPSEPIVTSQLGTVNNIIQVKKTDFEVFDALMVDSQKCSDVSELSSSPPGPYHQEPYVCKPEERFRAPPILPPHLLQVILNKDTGISCDPALLPEPNHVMLNHLYALSIKDGVMVLSATHRYKKKYVTTLLYKPI
# chain 3: METVISSDSSPAVENEHPQETPESNNSVYTSFMKSHRCYDLIPTSSKLVVFDTSLQVKKAFFALVTNGVRAAPLWDSKKQSFVGMLTITDFINILHRYYKSALVQIYELEEHKIETWREVYLQDSFKPLVCISPNASLFDAVSSLIRNKIHRLPVIDPESGNTLYILTHKRILKFLKLFITEFPKPEFMSKSLEELQIGTYANIAMVRTTTPVYVALGIFVQHRVSALPVVDEKGRVVDIYSKFDVINLAAEKTYNNLDVSVTKALQHRSHYFEGVLKCYLHETLETIINRLVEAEVHRLVVVDENDVVKGIVSLSDILQALVLTGGEKKP
# Tests used:
# BRD4 peptide S325 = target: T1, BRD4 peptide S325
# T1 chain: GQRRESSRPVKPPRR
# BRD4 peptide S338 = target: T2, BRD4 peptide S338
# T2 chain: KKDVPDSQQHPAPRR
# BRD4 peptide S358 = target: T3, BRD4 peptide S358
# T3 chain: EQLKCCSGILKEMRR
# BRD4 peptide T169 = target: T4, BRD4 peptide T169
# T4 chain: ELPTEETEIMIVQRR
# [1] = target: BRD4-GST (BD1 and BD2 (49-460)) (BPS Bioscience 31044), O60885
protein,measurement,setting,value
B1,"ADP-Glo assay, phosphorylation of the peptide by AMPK compared with the SAMS peptide",BRD4 peptide S325,these peptides showed a 250-fold lower preference for phosphorylation than AMPK's natural ACC substrate-SAMS peptide
same,"ADP-Glo assay, phosphorylation of the peptide by AMPK compared with the SAMS peptide",BRD4 peptide S338,these peptides showed a 250-fold lower preference for phosphorylation than AMPK's natural ACC substrate-SAMS peptide
same,"ADP-Glo assay, phosphorylation of the peptide by AMPK compared with the SAMS peptide",BRD4 peptide S358,these peptides showed a 250-fold lower preference for phosphorylation than AMPK's natural ACC substrate-SAMS peptide
same,"ADP-Glo assay, phosphorylation of the peptide by AMPK compared with the SAMS peptide",BRD4 peptide T169,these peptides showed a 250-fold lower preference for phosphorylation than AMPK's natural ACC substrate-SAMS peptide
same,"BRD4 phosphorylation, western blot with phospho-AMPK substrate motif antibody",[1],"Applicants observed BRD4 phosphorylation only when PHICS, BRD4, and kinase were present"
